The target in one test is T1, QacAWT tagged with GFP (Staphylococcus aureus, UniProt P0A0J9).
T1 construct: QacA wild type, 14 transmembrane helix MFS (DHA2) antibacterial efflux antiporter of Staphylococcus aureus; codon-optimized synthetic gene in pBAD-His8; the methods of the spheroplast imaging name only QacA_(D411N)-GFP; also called QacA-GFP; source: on E. coli spheroplasts; not shown: GFP, C-terminal, kept
The test can be described thus: immunostaining of cells or tissue; NHS-Rhodamine labelled ICabs (0.03 mg/ml) added to E. coli spheroplasts expressing GFP-tagged QacA, room temperature 30 min, washed, confocal microscopy. The settings on record: one partner purified.

Another test concerns the target five unique clones. As to the kind of experiment: flow cytometry on cells; yeast cells displaying individual ICab clones with QacA_(D411N)-GFP; percent population shift. A general note: In flow cytometry, cells or beads pass a laser one at a time.
Test [1] deals with ICab B7 displayed on the yeast cell surface. The test can be described thus: flow cytometry on cells; yeast cells displaying the ICab incubated with different concentrations of purified QacA_(D411N)-GFP; population shift-based titration; one site-specific binding fit; apparent Kd.
For test [2], the target named is ICab A4 displayed on the yeast cell surface. Described as above.
In the next test the target is the identified ICabs. The test is described as above.

B1: ICab B7, purified (VHH)
VHH: QVQLQESGGGSVQAGGSLRLSCAASGYTNSRKCMGWFRQIPGKEREGVAAIYGFGRGLILYADSVKGRFTISQDNAKNTVYLQMNSLKPEDTAMYYCAADSPGSCLSRSGYNYWGQGTQVTVSS
notes: single-domain Indian camelid antibody B7 from a camel immunised with QacA; source: E. coli SHuffle T7, purified (Ni-NTA, SEC)
For B1, in the test with QacAWT tagged with GFP, the binding result is on record as “binds”.

B2: QacA_(D411N)-GFP (natural protein)
chain: MISFFTKTTDMMTSKKRWTALVVLAVSLFVVTMDMTILIMALPELVRELEPSGTQQLWIVDIYSLVLAGFIIPLSAFADKWGRKKALLTGFALFGLVSLAIFFAESAEFVIAIRFLLGIAGALIMPTTLSMIRVIFENPKERATALAVWSIASSIGAVFGPIIGGALLEQFSWHSAFLINVPFAIIAVVAGLFLLPESKLSKEKSHSWDIPSTILSIAGMIGLVWSIKEFSKEGLADIIPWVVIVLAITMIVIFVKRNLSSSDPMLDVRLFKKRSFSAGTIAAFMTMFAMASVLLLASQWLQVVEELSPFKAGLYLLPMAIGDMVFAPIAPGLAARFGPKIVLPSGIGIAAIGMFIMYFFGHPLSYSTMALALILVGAGMASLAVASALIMLETPTSKAGNAAAVEESMYNLGNVFGVAVLGSLSSMLYRVFLDISSFSSKGIVGDLAHVAEESVVGAVEVAKATGIKQLANEAVTSFNDAFVATALVGGIIMIIISIVVYLLIPKSLDITKQK
In the case of B2, the population shift with five unique clones was in the range of 65 to 97%. Besides, the Kd in test [1] turned out to be 100 nM; in test [2] it was 65 nM; with the identified ICabs, 59 nM.

B3: ICab A4, purified (VHH)
VHH: QVQLQESGGGSVQTGGSLRLSCAASGYRYSDNCVGWFRQAPGREREAVATYNSGSSTWYADSVKGRFTISQDSAKSTVYLQMNNLKPEDTAMYYCAGRNRLGSYCYMTGDFAYWGQGTQVTVSS
notes: single-domain Indian camelid antibody A4 from a camel immunised with QacA; source: E. coli SHuffle T7, purified (Ni-NTA, SEC)
For B3, the binding result with QacAWT tagged with GFP is reported as “binds”.
